Measured values taken from patent US20180016312A1 (Pieris, published 2018).

T1: human angiopoietin-2 (human, UniProt O15123 19-496, limits assumed)
T1 construct: Bought recombinant protein with a His tag (detected by anti-HIS-tag antibody); also called human Ang-2; hAng-2
T1 sequence (looked up): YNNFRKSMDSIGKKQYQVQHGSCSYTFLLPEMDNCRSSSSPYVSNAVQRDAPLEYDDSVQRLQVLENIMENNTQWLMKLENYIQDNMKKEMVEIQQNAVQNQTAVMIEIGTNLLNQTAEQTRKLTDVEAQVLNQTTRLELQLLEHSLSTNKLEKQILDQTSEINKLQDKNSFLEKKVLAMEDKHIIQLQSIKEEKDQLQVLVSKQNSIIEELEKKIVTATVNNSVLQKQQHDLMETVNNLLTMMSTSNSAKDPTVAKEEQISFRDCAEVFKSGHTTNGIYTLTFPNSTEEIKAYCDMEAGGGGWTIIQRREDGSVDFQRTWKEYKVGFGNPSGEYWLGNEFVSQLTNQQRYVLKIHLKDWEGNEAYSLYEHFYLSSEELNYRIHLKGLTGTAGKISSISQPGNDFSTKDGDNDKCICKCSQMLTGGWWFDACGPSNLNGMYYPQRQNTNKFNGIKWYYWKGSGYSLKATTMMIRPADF

T2: human angiopoietin-1 (human, UniProt Q15389 20-498, limits assumed)
T2 construct: Bought recombinant protein; also called human Ang-1; hAng-1
T2 sequence (looked up): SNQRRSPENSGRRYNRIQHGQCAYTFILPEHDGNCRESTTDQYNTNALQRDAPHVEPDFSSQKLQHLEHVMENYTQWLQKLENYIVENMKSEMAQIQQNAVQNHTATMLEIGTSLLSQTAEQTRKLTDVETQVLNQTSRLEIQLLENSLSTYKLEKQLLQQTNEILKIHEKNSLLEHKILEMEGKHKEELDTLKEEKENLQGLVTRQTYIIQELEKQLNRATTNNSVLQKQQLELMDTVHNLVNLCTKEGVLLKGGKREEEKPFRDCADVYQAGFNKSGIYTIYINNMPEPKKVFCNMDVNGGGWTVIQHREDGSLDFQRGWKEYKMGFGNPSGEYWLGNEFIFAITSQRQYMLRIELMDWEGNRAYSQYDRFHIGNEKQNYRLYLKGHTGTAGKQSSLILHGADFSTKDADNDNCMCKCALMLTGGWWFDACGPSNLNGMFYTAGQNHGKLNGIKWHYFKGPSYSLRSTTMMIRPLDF

T3: mouse angiopoietin-2 (mouse, UniProt O35608 19-496, limits assumed)
T3 construct: Bought recombinant protein; also called mouse Ang-2; mAng-2
T3 sequence (looked up): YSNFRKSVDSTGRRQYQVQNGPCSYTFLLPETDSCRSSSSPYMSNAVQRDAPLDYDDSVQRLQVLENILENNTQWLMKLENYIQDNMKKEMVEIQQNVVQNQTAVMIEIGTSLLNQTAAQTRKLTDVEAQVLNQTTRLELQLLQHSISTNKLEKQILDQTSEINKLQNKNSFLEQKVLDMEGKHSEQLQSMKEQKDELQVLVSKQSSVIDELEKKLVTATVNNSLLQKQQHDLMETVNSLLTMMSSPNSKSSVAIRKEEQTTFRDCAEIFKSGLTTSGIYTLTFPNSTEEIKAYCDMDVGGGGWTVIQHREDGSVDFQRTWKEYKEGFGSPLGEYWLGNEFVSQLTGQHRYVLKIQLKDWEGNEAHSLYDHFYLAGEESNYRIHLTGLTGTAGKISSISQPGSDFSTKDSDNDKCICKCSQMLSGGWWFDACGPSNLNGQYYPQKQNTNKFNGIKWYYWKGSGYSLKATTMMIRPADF


Key:
human angiopoietin-2 [1] = biological target: T1, human angiopoietin-2; test: competition ELISA; 0.5 nM hAng-2 pre-incubated with binder, free hAng-2 captured on hTie-2 Fc (competitor)
Protocol: All incubation steps were performed with shaking at 300 rpm, and the plate was washed after each incubation step with 80 μl PBS-T buffer (PBS, 0.05% Tween 20) for five times using a Biotek EL405 select CW washer (Biotek). In the first step, a 384 well plate was directly coated with 20 μl of soluble human hTie-2 Fc (Reliatech) at a concentration of […] in PBS over night at 4 ° C. After washing, h Tie-2 Fc coated wells were blocked with 60 μl PBS-T/BSA (2% BSA in PBS containing 0.1% Tween 20) for 1 h at room temperature.
Curve fitting was performed using GraphPad Prism 4 software.

human angiopoietin-2 [2] = biological target: T1, human angiopoietin-2; test: cell-based or functional assay
human angiopoietin-2 [3] = biological target: T1, human angiopoietin-2; test: ELISA; Ang-2 coated, mutein detected by anti-Streptag-HRP
Protocol: Binding of muteins was tested by a sandwich ELISA assay.
20 μl of serially diluted muteins were incubated in PBS-T/BSA for 1h at room temperature (RT).
The residual supernatants were discarded and 20 μl HRP-labeled anti-Streptag antibody was added at a predetermined optimal concentration in PBS-T/BSA and incubated for 1 h at RT. After washing, 20 μl fluorogenic HRP substrate (QuantaBlu, Thermo) was added to each well, and the reaction was allowed to proceed for 15 to 60 minutes. The fluorescence intensity of every well on the plate was read using a fluorescence microplate reader (Tecan or Molecular Devices). Curve fitting was performed using GraphPad Prism 4 software.

human angiopoietin-1 = biological target: T2, human angiopoietin-1; test: competition ELISA format (FIG. 2)
Protocol: In the following detailed experimental protocol, incubation and washing steps were performed as described above in the competition ELISA protocol (see Example 5).

mouse angiopoietin-2 = biological target: T3, mouse angiopoietin-2; test: competition cell ECL; mAng-2 pre-incubated with binder, free Ang-2 captured on HEK:hTie-2 cells (competitor)
Protocol: (§1) All incubation steps were performed at room temperature, and the plate was washed after each incubation step with 80 μl PBS buffer for two times using a Biotek EL405 select CW washer (Biotek). In the first step, a 384 well plate was precoated for 5 minutes with poly D lysine and washed twice with PBS. 10⁴ HEK:hTie-2 cells per well were seeded and allowed to adhere to the surface of the wells overnight at 37° C. . After washing, cell coated wells were blocked with 60 μl PBS/Casein (2% Casein in PBS) for 1 h at room temperature.
(§2) After washing, 35 μl surfactant-free reading buffer was added to each well and the ECL signal of every well was read using a Mesoscale Discovery reader.

human angiopoietin-2 [4] = biological target: T1, human angiopoietin-2; test: SPR Biacore T200; biotinylated mutein captured, hAng-2 analyte, 1:1 model, 25 C
Protocol: (§3) In the SPR affinity assay, biotinylated muteins and negative control were captured on a sensor chip CAP using the Biotin CAPture Kit (GE Healthcare): Sensor Chip CAP is pre-immobilized with an ssDNA oligo. Undiluted Biotin CAPture Reagent (streptavidin conjugated with the complementary ss-DNA oligo) was applied at a flow rate of 2 μl/min for 300 s. Subsequently, 0.02 μg/mL of biotinylated muteins or negative control were applied for 300 s at a flow rate of 5 μl/min. […] The reference channel was loaded with Biotin CAPture Reagent only.
(§4) Applying a flow rate of 30 μL/min, a multi cycle kinetics approach was used with a sample contact time of 180 s and a dissociation time of 4600 s. All measurements were performed at 25° C. […] Data were evaluated with Biacore T200 Evaluation software (V 1.0). Double referencing was used. A 1:1 Binding model was used to fit the raw data even though the analyte was known to be a multimer.

human angiopoietin-2 [5] = biological target: T1, human angiopoietin-2; test: competition cell ECL; hAng-2 pre-incubated with binder, free Ang-2 captured on HEK:hTie-2 cells (competitor)
Protocol: as §1, §2

human angiopoietin-2 [6] = biological target: T1, human angiopoietin-2; test: SPR Biacore T200; upper end of the range, tied to SEQ ID NO: 7 by Table 3
Protocol: as §3, §4

human angiopoietin-2 [7] = biological target: T1, human angiopoietin-2; test: SPR Biacore T200; lower end of the range, tied to SEQ ID NO: 11 by Table 3
Protocol: as §3, §4

human angiopoietin-2 [8] = biological target: T1, human angiopoietin-2; test: SPR Biacore T200; biotinylated SEQ ID NO: 16 captured, hAng-2 analyte
Protocol: as §3, §4

| Binder | IC50 (human angiopoietin-2 [1]) [nM] | IC50 mean, LEC proliferation assay (CellTiter-Glo) (human angiopoietin-2 [2]) [nM] | EC50 (human angiopoietin-2 [3]) [nM] | binding result (human angiopoietin-1) | IC50 (mouse angiopoietin-2) [nM] | Kd (human angiopoietin-2 [4]) [nM] | koff (human angiopoietin-2 [4]) [s⁻¹] | IC50 (human angiopoietin-2 [5]) [nM] | Kd (human angiopoietin-2 [6]) [nM] | Kd (human angiopoietin-2 [7]) [nM] | binding result (human angiopoietin-2 [8]) |
| --- | --- | --- | --- | --- | --- | --- | --- | --- | --- | --- | --- |
| hNGAL lipocalin mutein SEQ ID NO: 7 (designed binder, Mutein of mature hNGAL; Biotinylated with NHS-PEG4-Biotin for the SPR assay) QDSTSDLIPAPPLSKVPLQQNFQDNQFHGKWYVVGHAGNYILREDKDPEKMWATIYELKEDKSYDVTEVSFGPKKCNYRIWTFVPGSQPGEFTLGGIKSPPGDTSTLVRVVSTNYNQHAMVFFKHVLQNREFFEITLYGRTKELTSELKENFIRFSKSLGLPENHIVFPVPIDQCIDGSAWSHPQFEK | 0.0619 | 0.199 | 2.1 | binds | 1.23 | 1.43 | 0.00026 | 3.6 | 0.2 to 1.4 |  |  |
| hNGAL lipocalin mutein SEQ ID NO: 11 (designed binder, Mutein of mature hNGAL; Biotinylated with NHS-PEG4-Biotin for the SPR assay) QDSTSDLIPAPPLSKVPLQQNFQDNQFHGKWYVVGQAGNYILREDKDPVKMWATIYELKEDKSYDVTEVSFGPKKCNYRIWTFVPGSQPGEFTLGGIKSLPGGTSTLVRVVSTNYNQHAMVFFKHVLQNREFFEITLYGRTKELTSELKENFIRFSKSLGLPENHIVFPVPIDQCIDGSAWSHPQFEK | 0.0988 | 0.169 | 2.3 |  | 1.45 | 0.21 | 0.00087 | 4.79 |  | 0.2 to 1.4 |  |
| hNGAL lipocalin mutein SEQ ID NO: 8 (designed binder, Mutein of mature hNGAL; Biotinylated with NHS-PEG4-Biotin for the SPR assay) QDSTSDLIPAPPLSKVPLQQNFQDNQFHGKWYVVGQAGNYILREDKDPGKMWATIYELKEDKSYDVTEVSFGAKKCNYRIWTFVPGSQPGEFTLGGIKSDPGGTSTLVRVVSTNYNQHAMVFFKHVLQNREFFEITLYGRTKELTSELKENFIRFSKSLGLPENHIVFPVPIDQCIDGSAWSHPQFEK | 0.0708 | 0.078 | 2.4 | binds | 1.25 | 0.37 | 0.00013 | 3.75 |  |  |  |
| mature hNGAL (SEQ ID NO: 16), negative control (other, Used as negative control; Biotinylated for the SPR assay; also called human lipocalin 2; human NGAL) QDSTSDLIPAPPLSKVPLQQNFQDNQFQGKWYVVGLAGNAILREDKDPQKMYATIYELKEDKSYNVTSVLFRKKKCDYWIRTFVPGCQPGEFTLGNIKSYPGLTSYLVRVVSTNYNQHAMVFFKKVSQNREYFKITLYGRTKELTSELKENFIRFSKSLGLPENHIVFPVPIDQCIDG |  |  |  |  |  |  |  |  |  |  | no binding (tested: human Ang-2 at 1-27 nM) |
